Our source for the Trimeric HA Binding RLU and OD450 values is patent publication US20120207760A1.

Assay [1] has as its target recombinant homotrimeric HA, A/Solomon Islands/3/06 H1N1 (Influenza A virus A/Solomon Islands/3/06 (H1N1)). The assay can be described thus: trimeric HA microarray, transfection set 3.
In assay [2] the target is recombinant homotrimeric HA, A/California/4/09 H1N1 (Influenza A virus A/California/4/09 (H1N1)). Nature of the assay: trimeric HA microarray, transfection set 3.
The target in assay [3] is recombinant homotrimeric HA, A/Anhui/1/05 H5N1 (Influenza A virus A/Anhui/1/05 (H5N1)). Nature of the assay: trimeric HA microarray, transfection set 3.
Assay [4] deals with recombinant homotrimeric HA, A/chicken/Vietnam/NCVD-016/08 H5N1 (Influenza A virus A/chicken/Vietnam/NCVD-016/08 (H5N1)). The assay can be described thus: trimeric HA microarray, transfection set 3.
Assay [5] concerns the target recombinant homotrimeric HA, A/duck/Yangzhou/02/05 H8N4 (Influenza A virus A/duck/Yangzhou/02/2005 (H8N4)). The assay can be described thus: trimeric HA microarray, transfection set 3.
In assay [6] the target is recombinant homotrimeric HA, A/swine/Ontario/01911-2/99 H4N6 (Influenza A virus A/swine/Ontario/01911-2/99 (H4N6)). Nature of the assay: trimeric HA microarray, transfection set 3.
Assay [7] has as its target recombinant homotrimeric HA, A/northern shoveler/California/HKWF115/07 (Influenza A virus A/northern shoveler/California/HKWF115/2007 (H6N1)). The assay can be described thus: trimeric HA microarray, transfection set 3.
In assay [8] the target is recombinant homotrimeric HA, A/South Carolina/1/18 H1N1 (Influenza A virus A/South Carolina/1/18 (H1N1)). The assay can be described thus: trimeric HA microarray, transfection set 3.
Assay [9] deals with recombinant homotrimeric HA, A/Japan/305/57 H2N2 (Influenza A virus A/Japan/305/57 (H2N2)). Nature of the assay: trimeric HA microarray, transfection set 3.
Assay [10] addresses recombinant homotrimeric HA, A/Indonesia/5/05 H5N1 (Influenza A virus A/Indonesia/5/05 (H5N1)). The assay can be described thus: trimeric HA microarray, transfection set 3.
In assay [11] the target is recombinant homotrimeric HA, A/Wisconsin/67/05 H3N2 (Influenza A virus A/Wisconsin/67/05 (H3N2)). The assay can be described thus: trimeric HA microarray, transfection set 3.
For assay [12], the target named is recombinant homotrimeric HA, A/Hong Kong/2108/03 H9N2 (Influenza A virus A/Hong Kong/2108/03 (H9N2)). Nature of the assay: trimeric HA microarray, transfection set 3.
The target in assay [13] is recombinant homotrimeric HA, A/Vietnam/1203/04 H5N1 (Influenza A virus A/Vietnam/1203/04 (H5N1)). Nature of the assay: trimeric HA microarray, transfection set 3.
Assay [14] has as its target hemagglutinin (HA) of influenza A/Wisconsin/67/05 H3N2 (Influenza A virus A/Wisconsin/67/2005 (H3N2)). The assay can be described thus: ELISA, inactivated whole virions coated; transfection supernatant set 4.
The target in assay [15] is hemagglutinin (HA) of influenza A/Solomon Islands/3/06 H1N1 (Influenza A virus A/Solomon Islands/3/2006 (H1N1)). Described as above.
Assay [16] has as its target hemagglutinin (HA) of influenza A/Japan/305/57 H2N2 (Influenza A virus A/Japan/305/1957 (H2N2)) (UniProt P03451). Described as above.
Assay [17] deals with recombinant homotrimeric HA, A/Solomon Islands/3/06 H1N1 (Influenza A virus A/Solomon Islands/3/06 (H1N1)). The assay can be described thus: trimeric HA microarray, transfection set 4.
The target of assay [18] is recombinant homotrimeric HA, A/California/4/09 H1N1 (Influenza A virus A/California/4/09 (H1N1)). The assay can be described thus: trimeric HA microarray, transfection set 4.
Assay [19] addresses recombinant homotrimeric HA, A/swine/Ontario/01911-2/99 H4N6 (Influenza A virus A/swine/Ontario/01911-2/99 (H4N6)). The assay can be described thus: trimeric HA microarray, transfection set 4.
Assay [20] has as its target recombinant homotrimeric HA, A/South Carolina/1/18 H1N1 (Influenza A virus A/South Carolina/1/18 (H1N1)). The assay can be described thus: trimeric HA microarray, transfection set 4.
In assay [21] the target is recombinant homotrimeric HA, A/Japan/305/57 H2N2 (Influenza A virus A/Japan/305/57 (H2N2)). The assay can be described thus: trimeric HA microarray, transfection set 4.
Assay [22] has as its target recombinant homotrimeric HA, A/Indonesia/5/05 H5N1 (Influenza A virus A/Indonesia/5/05 (H5N1)). Nature of the assay: trimeric HA microarray, transfection set 4.
Assay [23] deals with recombinant homotrimeric HA, A/Wisconsin/67/05 H3N2 (Influenza A virus A/Wisconsin/67/05 (H3N2)). The assay can be described thus: trimeric HA microarray, transfection set 4.
In assay [24] the target is recombinant homotrimeric HA, A/Vietnam/1203/04 H5N1 (Influenza A virus A/Vietnam/1203/04 (H5N1)). Nature of the assay: trimeric HA microarray, transfection set 4.

With TCN-202 (2N9) (antibody), the Trimeric HA Binding RLU amounted to 57 RLU in [1]; 205 RLU in assay [2]; 33 RLU in assay [3]; 14 RLU in assay [4]; 66 RLU in assay [5]; 54 RLU in assay [6]. Besides, the Trimeric HA Binding RLU stood at 73 RLU in [7]; 731 RLU in [8]; 42 RLU in assay [9]; 43 RLU in [10]; 51 RLU in assay [11]; 30 RLU in assay [12]. The Trimeric HA Binding RLU in assay [13] was determined as 967 RLU; in [17] it was 34 RLU; in [18] it was 94 RLU; in assay [19], 157 RLU; in assay [20], 27 RLU; in assay [21] it was 334 RLU. Also, the Trimeric HA Binding RLU in assay [22] is 19 RLU; in [23] it was 125 RLU; in [24], 67 RLU. Besides, the OD450 came to 0.07 OD450 in [14], 0.1 OD450 in [15] and 0.08 OD450 in assay [16].
